{"source": "patent US20080102477", "target": "T1, BubR1 (amino acids 1-514) GST-fusion protein, O60566", "T1 chain": "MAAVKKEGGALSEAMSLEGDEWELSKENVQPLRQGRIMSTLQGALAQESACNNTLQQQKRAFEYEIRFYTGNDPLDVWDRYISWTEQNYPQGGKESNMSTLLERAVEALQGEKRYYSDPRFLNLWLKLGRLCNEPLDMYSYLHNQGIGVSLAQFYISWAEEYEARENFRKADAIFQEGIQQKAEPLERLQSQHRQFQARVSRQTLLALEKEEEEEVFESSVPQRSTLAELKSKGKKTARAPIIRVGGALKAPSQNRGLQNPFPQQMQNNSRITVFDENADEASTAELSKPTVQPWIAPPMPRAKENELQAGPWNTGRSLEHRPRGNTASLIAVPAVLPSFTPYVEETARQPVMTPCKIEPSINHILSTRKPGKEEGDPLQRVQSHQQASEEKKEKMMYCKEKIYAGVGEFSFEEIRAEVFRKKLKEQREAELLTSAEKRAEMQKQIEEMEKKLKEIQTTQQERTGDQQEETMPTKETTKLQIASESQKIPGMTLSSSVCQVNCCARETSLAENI", "data": [{"protein": "PCAF (amino acids 352-832) GST-fusion protein (protein) MLEEEVYSQNSPIWDQDFLSASSRTSQLGIQTVINPPPVAGTISYNSTSSSLEQPNAGSSSPACKASSGLEANPGEKRKMTDSHVLEEAKKPRVMGDIPMELINEVMSTITDPAAMLGPETNFLSAHSARDEAARLEERRGVIEFHVVGNSLNQKPNKKILMWLVGLQNVFSHQLPRMPKEYITRLVFDPKHKTLALIKDGRVIGGICFRMFPSQGFTEIVFCAVTSNEQVKGYGTHLMNHLKEYHIKHDILNFLTYADEYAIGYFKKQGFSKEIKIPKTKYVGYIKDYEGATLMGCELNPRIPYTEFSVIIKKQKEIIKKLIERKQAQIRKVYPGLSCFKDGVRQIPIESIPGIRETGWKPSGKEKSKEPRDPDQLYSTLKSILQQVKSHQSAWPFMEPVKRTEAPGYYEVIRFPMDLKTMSERLKNRYYVSKKLFMADLQRVFTNCKEYNPPESEYYKCANILEKFFFSKIKEAGLIDK", "values": [{"measurement": "in vitro acetylation assay (Western blot with anti-acetyl lysine antibodies; MALDI-MS and MS/MS of pepsin peptides)", "value": "the appearance of a 42 Da acetylation peak in the presence of active PCAF (PCAF 352-832) confirmed that lysine 250 (K250) is the acetylation site of BubR1"}]}]}
